From US20220362394A1, “ANTI-BCMA ANTIBODY CONJUGATES” (SUTRO BIOPHARMA, INC., priority 2019, published 2022)
Positions count from the first letter of the chain named.

T1: human BCMA-Fc (Homo sapiens, UniProt Q02223)
T1 construct: purchased R&D Systems
T1 sequence (Q02223 1-54 limits assumed): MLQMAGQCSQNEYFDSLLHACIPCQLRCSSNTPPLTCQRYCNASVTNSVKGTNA

B1: 10F4: chicken antibody, VH SEQ ID NO 203, VL SEQ ID NO 225 (antibody, V domains shown)
VH: AVTLDESGGGLQTPGGALSLVCKASGFTFSGYNMGWVRQAPGKGLEYVAGITYGTGSYTAYGAAVKGRATISRDNGQSTLRLQLNNLRAEDTATYYCARGGGLNSYGCSGANIDAWGHGTEVIVSS
VL: ALTQPSSVSANLGGTVKITCSGGGNYFGSYYYGWYQQKAPGSAPVTVIYNNNNRPSDIPSRFSGSTSGSTSTLTISGVRAEDEAVYFCGGFDSSTDAIFGAGTTLTVL
modifications: Synthetic 10F4, VH; Synthetic 10F4, VL
B2: 9E12: chicken antibody, VH SEQ ID NO 209, VL SEQ ID NO 231 (antibody, V domains shown)
VH: AVTLDESGGGLQTPGGGLSLVCKASGFTFSDYGLGWMRQAPGKGLEYVARINSAGSGTYYGSAVDGRATISRDNGQSTVRLQLNNLRAEDTGTYYCTRGGGGASIDGWGHGTEVIVSS
VL: B1 VL with L12P, G14E, N25S, F27Y, A39S, V47L, S71G, S76T, F87Y, G90S
modifications: Synthetic 9E12, VH; Synthetic 9E12, VL
B3: 9H1: chicken antibody, VH SEQ ID NO 210, VL SEQ ID NO 232 (antibody, V domains shown)
VH: AVTLDESGGGLQTPGGALSLVCKGSGFTFSDYGMGWMRQAPGKGLQYVARINSAGSDTNYGSAVKGRATISRDDGQSTVRLQLSSLRAEDTGIYYCTRGGGGASIDGWGHGTEVIVSS
VL: B1 VL with L12P, G14E, N25S, F27Y, A39S, V47L, S71G, S76T, F87Y, G90S
modifications: Synthetic 9H1, VH; Synthetic 9H1, VL
B4: 10H1: chicken antibody, VH SEQ ID NO 211, VL SEQ ID NO 233 (antibody, V domains shown)
VH: B2 VH with G17A, D31G, L34M, G57D, Y59D, S62A, D65K, G92A, Y95F
VL: B1 VL with L12P, G14E, F27Y, D57N, T66K, S71G, S76T, R79Q, T95S
modifications: Synthetic 10H1, VH; Synthetic 10H1, VL
B5: 10E10: chicken antibody, VH SEQ ID NO 212, VL SEQ ID NO 234 (antibody, V domains shown)
VH: AVTLDESGGGLQTPGGGLSLVCKASGFTFSSYGMGWMRQAPGKGLEFVARINSGGSSYTDYGSAVKGRATISRDDGQSTVRLQLNNLRAEDTGIYYCTRGGGGASIDGWGHGTEVIVSS
VL: B1 VL with L12P, G14E, F27A, A39S, V45L, N51S, T66L, S71G, S76T
modifications: Synthetic 10E10, VH; Synthetic 10E10, VL
B6: 9A5: chicken antibody, VH SEQ ID NO 208, VL SEQ ID NO 230 (antibody, V domains shown)
VH: AVTLDESGGGLQTPGGAVSLVCKASGFSISDYGMGWMRQAPGKGLQYVARIDHDGRYTDYGAVVKGRATISRDNGQSTVRLQLNNLRAEDTGTYYCTRGGGAASIDTWGHGTEVIVSS
VL: B1 VL with L12P, G14E, F27V, S29G, P44L, V47L, D57N, S76T, G90S
modifications: Synthetic 9A5, VH; Synthetic 9A5, VL
B7: 11D6: chicken antibody, VH SEQ ID NO 198, VL SEQ ID NO 220 (antibody, V domains shown)
VH: AVTLDESGGGLQTPGGTLSLVCKASGFTFSSFNMFWVRQAPGEGLEWVAYIRNDGRSTSYGPAVKGRATISRDNGQSTVRLQLNNLRAEDTGTYFCAKTTCVGSGGCIDTWGHGTEVIVSS
VL: ALTQPSSVSANPGETVEITCSGGNSDYGWFQQKSPGSAPVTVIYRNNQRPSDIPSRFSGSGSGSTNTLTITGVQAEDEAIYYCGNVDFTDDVFGAGTTLTVL
modifications: Synthetic 11D6, VH; Synthetic 11D6, VL
B8: 10G5: chicken antibody, VH SEQ ID NO 197, VL SEQ ID NO 219 (antibody, V domains shown)
VH: B7 VH with T17V, E43K, R52S, R56S, G92A, V102I
VL: B7 VL with E17K, S25Y, F30Y, V42L, R45Y, Q48K, G61K, N66G, G84A, F88S
modifications: Synthetic 10G5, VH; Synthetic 10G5, VL
B9: 9A8: chicken antibody, VH SEQ ID NO 196, VL SEQ ID NO 218 (antibody, V domains shown)
VH: B7 VH with E43K, R56N, T58A, G92A, F95Y, V102I
VL: B7 VL with E17K, N24S, R45S, D52G, G61K, N66G, G84A, F88Y
modifications: Synthetic 9A8, VH; Synthetic 9A8, VL

Tested on: ARP-1
Test: Cell killing with drug-conjugated 2° antibody (internalization), ARP-1
Format: cell-based, human
Details: Conjugate P 2° antibody 20 nM, 72 hrs
Method: (§1) The internalization of the antibodies was evaluated by drugs conjugated to secondary antibodies in a cell killing assay on BCMA positive cells. BCMA-positive cell lines ARP-1 and U266B1 were used to screen for internalizing leads. Cells were washed twice with calcium and magnesium-free Dulbecco's phosphate-buffered saline (DPBS), harvested with Accutase® (Innovative Cell Technologies; San Diego, Calif.) and counted by the Vi-CELL Cell Viability Analyzers (Beckman Coulter, Brea, Calif.). A total of 12,500 cells in a volume of 25 microliter were seeded in a 384-well flat bottom white polystyrene plate (Greiner Bio-One, Monroe, N.C.) on the day of assay. Lead antibodies were formulated at 4× starting concentration in the cell culture medium and filtered through MultiScreenHTS 96-Well Filter Plates (Millipore; Billerica, Mass.). 12.5 μL of the serial diluted antibody (1:3 serial dilution starting from 100 nM) was added into treatment wells and 12.5 μL of an anti-human nanobody conjugated to according to Conjugate P (hemiasterlin via a cleavable linker) or according to Conjugate M (maytansinoid via a non-cleavable linker) was then added into each well at a fixed final concentration of 20 nM. […] Data was fitted with non-linear regression analysis, using a log(inhibitor) vs. response-variable slope, 4 parameter fit with GraphPad Prism (GraphPad v 5.0, Software; San Diego, Calif.). Data was expressed as relative cell viability (ATP content) % vs. dose of antibody.

First: B1
Second: B2
The “Span (%)” value of the first is higher: 87% for the first, 80% for the second.

Compared with B3, B4 is higher in “Span (%)” value: 74% for the first, 88% for the second.

Going from B5 to B6, the “Span (%)” value rises from 46% to 93%.

Compared with B7, B8 is lower in “Span (%)” value: 83% for the first, 82% for the second.

With B9 the “Span (%)” value was 82%.

Same assay, conditions: Conjugate P 2° antibody (hemiasterlin, cleavable linker) 20 nM, 72 hrs

B1 and B2 are within 1.5-fold of each other in EC50: 1 nM for the first, 1.2 nM for the second.

First: B3
Second: B4
The EC50 of the first is 1.5-fold higher: 1.3 nM for the first, 0.86 nM for the second. The second is the more potent here.

Going from B5 to B6, the EC50 falls from 3 nM to 0.7 nM (4.3-fold).

B7 and B8 are within 1.5-fold of each other in EC50: 3.8 nM for the first, 3.5 nM for the second.

B9 gave an EC50 of 2.4 nM.

Tested on: U266B1
Test: Cell killing with drug-conjugated 2° antibody (internalization), U266B1
Format: cell-based, human
Details: Conjugate P 2° antibody 20 nM, 72 hrs
Method: as §1

Going from B1 to B2, the EC50 rises from 0.36 nM to 1.4 nM (3.9-fold). The first is the more potent here.

Going from B3 to B4, the EC50 falls from 1.1 nM to 0.29 nM (3.8-fold). The second is the more potent here.

Going from B5 to B6, the EC50 falls from 2.5 nM to 0.29 nM (8.6-fold).

Compared with B7, B8 is 1.7-fold higher in EC50: 1.1 nM for the first, 1.9 nM for the second. The first is the more potent here.

B9 gave an EC50 of 2.3 nM.

Compared with B1, B2 is lower in “Span (%)” value: 81% for the first, 47% for the second.

Going from B3 to B4, the “Span (%)” value rises from 50% to 89%.

Compared with B5, B6 is higher in “Span (%)” value: 20% for the first, 84% for the second.

Going from B7 to B8, the “Span (%)” value falls from 67% to 63%.

For B9, the “Span (%)” value was 42%.

Target: T1, human BCMA-Fc
Test: Biacore kinetics, human BCMA-Fc
Format: binding
Details: 25° C., 1-1 Langmuir model
Method: Anti-Fab or anti-Fc polyclonal antibodies were immobilized onto a CM5 chip (GE Life Sciences) using amine coupling chemistry (from Amine Coupling Kit, GE Life Sciences). The immobilization steps were carried out at a flow rate of 25 μL/min in 1×HBS-EP+ buffer (GE Life Sciences; 10× Stock diluted before use). The sensor surfaces were activated for 7 min with a mixture of NHS (0.05 M) and EDC (0.2 M). The anti-Fab or anti-Fc antibodies were injected over all 4 flow cells at a concentration of 25 μg/ml in 10 mM sodium acetate, pH 4.5, for 7 min. Ethanolamine (1 M, pH 8.5) was injected for 7 min to block any remaining activated groups. An average of 12,000 response units (RU) of capture antibody was immobilized on each flow cell.
Off-rate and kinetic binding experiments were performed at 25° C. using 1×HBS-EP+ buffer. Test and control antibodies were injected over the anti-Fab or anti-Fc surface at concentrations of 5-10 μg/mL for 12 seconds at a flow rate of 10 μL/min on flow cells 2, 3 and 4, followed by a buffer wash for 30 seconds at the same flow rate. […]
The data was fit with the Biacore T200 Evaluation software, using a 1-1 Langmuir binding model. KD (affinity, nM) was determined as a ratio of the kinetic rate constants calculated from the fits of the association and dissociation phases.

B7 was tested, and the “ka” value was 1.02e+06 M⁻¹ s⁻¹.

B7 was tested, and the “kd” value was 0.000318 s⁻¹.
